Source: patent publication US20220213181A1 (Novartis, published 2022)

How the values were obtained:
Experiment in all cases: linear peptide array on glass (JPT)
P20 = molecular target: T1, P20 (human)
T1 construct: linear 15-mer from the N-terminal coiled coil domain of human ANGPTL4
T1 peptide: TEGSTDLPLAPESRV
Procedure: (§1) The ability of selected antibodies of invention, namely NEG276 and NEG318, to bind to linear 15-amino-acid peptides derived from the N-terminal coiled coil domain of human ANGPTL4 was tested. The peptides were immobilized on a glass surface, and the ability of NEG276 and NEG318 to bind to the immobilized peptides was evaluated using experimental methods optimized for linear peptide epitope mapping at JPT Peptide Technologies (Berlin, Germany).

P37 = molecular target: T2, P37 (human)
T2 construct: linear 15-mer from the N-terminal coiled coil domain of human ANGPTL4
T2 peptide: HLRIQHLQSQFGLLD
Procedure: as §1

P24 = molecular target: T3, P24 (human)
T3 construct: linear 15-mer from the N-terminal coiled coil domain of human ANGPTL4
T3 peptide: SRVDPEVLHSLQTQL
Procedure: as §1

P14 = molecular target: T4, P14 (human)
T4 construct: linear 15-mer from the N-terminal coiled coil domain of human ANGPTL4; printed with Ser where ANGPTL4 has Cys
T4 peptide: QLSALERRLSASGSA
Procedure: as §1

P21 = molecular target: T5, P21 (human)
T5 construct: linear 15-mer from the N-terminal coiled coil domain of human ANGPTL4
T5 peptide: STDLPLAPESRVDPE
Procedure: as §1

P7 = molecular target: T6, P7 (human)
T6 construct: linear 15-mer from the N-terminal coiled coil domain of human ANGPTL4
T6 peptide: LAHGLLQLGQGLREH
Procedure: as §1

P43 = molecular target: T7, P43 (human)
T7 construct: linear 15-mer from the N-terminal coiled coil domain of human ANGPTL4
T7 peptide: KHLDHEVAKPARRKR
Procedure: as §1

P41 = molecular target: T8, P41 (human)
T8 construct: linear 15-mer from the N-terminal coiled coil domain of human ANGPTL4
T8 peptide: LLDHKHLDHEVAKPA
Procedure: as §1

P13 = molecular target: T9, P13 (human)
T9 construct: linear 15-mer from the N-terminal coiled coil domain of human ANGPTL4; printed with Ser where ANGPTL4 has Cys
T9 peptide: TRSQLSALERRLSAS
Procedure: as §1

P6 = molecular target: T10, P6 (human)
T10 construct: linear 15-mer from the N-terminal coiled coil domain of human ANGPTL4
T10 peptide: MNVLAHGLLQLGQGL
Procedure: as §1

P34 = molecular target: T11, P34 (human)
T11 construct: linear 15-mer from the N-terminal coiled coil domain of human ANGPTL4
T11 peptide: QQQRHLEKQHLRIQH
Procedure: as §1

P42 = molecular target: T12, P42 (human)
T12 construct: linear 15-mer from the N-terminal coiled coil domain of human ANGPTL4
T12 peptide: HKHLDHEVAKPARRK
Procedure: as §1

P3 = molecular target: T13, P3 (human)
T13 construct: linear 15-mer from the N-terminal coiled coil domain of human ANGPTL4
T13 peptide: SPRFASWDEMNVLAH
Procedure: as §1

P15 = molecular target: T14, P15 (human)
T14 construct: linear 15-mer from the N-terminal coiled coil domain of human ANGPTL4; printed with Ser where ANGPTL4 has Cys
T14 peptide: ALERRLSASGSASQG
Procedure: as §1

P11 = molecular target: T15, P11 (human)
T15 construct: linear 15-mer from the N-terminal coiled coil domain of human ANGPTL4
T15 peptide: REHAERTRSQLSALE
Procedure: as §1

P18 = molecular target: T16, P18 (human)
T16 construct: linear 15-mer from the N-terminal coiled coil domain of human ANGPTL4; printed with Ser where ANGPTL4 has Cys
T16 peptide: GSASQGTEGSTDLPL
Procedure: as §1

P1 = molecular target: T17, P1 (human)
T17 construct: linear 15-mer from the N-terminal coiled coil domain of human ANGPTL4
T17 peptide: GPVQSKSPRFASWDE
Procedure: as §1

P31 = molecular target: T18, P31 (human)
T18 construct: linear 15-mer from the N-terminal coiled coil domain of human ANGPTL4
T18 peptide: IQQLFHKVAQQQRHL
Procedure: as §1

P40 = molecular target: T19, P40 (human)
T19 construct: linear 15-mer from the N-terminal coiled coil domain of human ANGPTL4
T19 peptide: QFGLLDHKHLDHEVA
Procedure: as §1

P39 = molecular target: T20, P39 (human)
T20 construct: linear 15-mer from the N-terminal coiled coil domain of human ANGPTL4
T20 peptide: LQSQFGLLDHKHLDH
Procedure: as §1

P17 = molecular target: T21, P17 (human)
T21 construct: linear 15-mer from the N-terminal coiled coil domain of human ANGPTL4; printed with Ser where ANGPTL4 has Cys
T21 peptide: SASGSASQGTEGSTD
Procedure: as §1

P10 = molecular target: T22, P10 (human)
T22 construct: linear 15-mer from the N-terminal coiled coil domain of human ANGPTL4
T22 peptide: QGLREHAERTRSQLS
Procedure: as §1

P12 = molecular target: T23, P12 (human)
T23 construct: linear 15-mer from the N-terminal coiled coil domain of human ANGPTL4
T23 peptide: AERTRSQLSALERRL
Procedure: as §1

P19 = molecular target: T24, P19 (human)
T24 construct: linear 15-mer from the N-terminal coiled coil domain of human ANGPTL4; printed with Ser where ANGPTL4 has Cys
T24 peptide: SQGTEGSTDLPLAPE
Procedure: as §1

P23 = molecular target: T25, P23 (human)
T25 construct: linear 15-mer from the N-terminal coiled coil domain of human ANGPTL4
T25 peptide: APESRVDPEVLHSLQ
Procedure: as §1

P5 = molecular target: T26, P5 (human)
T26 construct: linear 15-mer from the N-terminal coiled coil domain of human ANGPTL4
T26 peptide: WDEMNVLAHGLLQLG
Procedure: as §1

P33 = molecular target: T27, P33 (human)
T27 construct: linear 15-mer from the N-terminal coiled coil domain of human ANGPTL4
T27 peptide: KVAQQQRHLEKQHLR
Procedure: as §1

P32 = molecular target: T28, P32 (human)
T28 construct: linear 15-mer from the N-terminal coiled coil domain of human ANGPTL4
T28 peptide: LFHKVAQQQRHLEKQ
Procedure: as §1

P29 = molecular target: T29, P29 (human)
T29 construct: linear 15-mer from the N-terminal coiled coil domain of human ANGPTL4
T29 peptide: KAQNSRIQQLFHKVA
Procedure: as §1

P28 = molecular target: T30, P28 (human)
T30 construct: linear 15-mer from the N-terminal coiled coil domain of human ANGPTL4
T30 peptide: TQLKAQNSRIQQLFH
Procedure: as §1

P25 = molecular target: T31, P25 (human)
T31 construct: linear 15-mer from the N-terminal coiled coil domain of human ANGPTL4
T31 peptide: DPEVLHSLQTQLKAQ
Procedure: as §1

P38 = molecular target: T32, P38 (human)
T32 construct: linear 15-mer from the N-terminal coiled coil domain of human ANGPTL4
T32 peptide: IQHLQSQFGLLDHKH
Procedure: as §1

P8 = molecular target: T33, P8 (human)
T33 construct: linear 15-mer from the N-terminal coiled coil domain of human ANGPTL4
T33 peptide: GLLQLGQGLREHAER
Procedure: as §1

P27 = molecular target: T34, P27 (human)
T34 construct: linear 15-mer from the N-terminal coiled coil domain of human ANGPTL4
T34 peptide: SLQTQLKAQNSRIQQ
Procedure: as §1

P26 = molecular target: T35, P26 (human)
T35 construct: linear 15-mer from the N-terminal coiled coil domain of human ANGPTL4
T35 peptide: VLHSLQTQLKAQNSR
Procedure: as §1

P30 = molecular target: T36, P30 (human)
T36 construct: linear 15-mer from the N-terminal coiled coil domain of human ANGPTL4
T36 peptide: NSRIQQLFHKVAQQQ
Procedure: as §1

P35 = molecular target: T37, P35 (human)
T37 construct: linear 15-mer from the N-terminal coiled coil domain of human ANGPTL4
T37 peptide: RHLEKQHLRIQHLQS
Procedure: as §1

P36 = molecular target: T38, P36 (human)
T38 construct: linear 15-mer from the N-terminal coiled coil domain of human ANGPTL4
T38 peptide: EKQHLRIQHLQSQFG
Procedure: as §1

P9 = molecular target: T39, P9 (human)
T39 construct: linear 15-mer from the N-terminal coiled coil domain of human ANGPTL4
T39 peptide: QLGQGLREHAERTRS
Procedure: as §1

P4 = molecular target: T40, P4 (human)
T40 construct: linear 15-mer from the N-terminal coiled coil domain of human ANGPTL4
T40 peptide: FASWDEMNVLAHGLL
Procedure: as §1

Measured: binding result

B1: NEG276 (antibody, human IgG1, kappa)
heavy: not shown
light: EIVMTQSPATLSVSPGERATLSCKASQDIGSNLNWLQQKPGQAPRRLIYAVSNRGPGIPARFSGSRSGSEYTLTISSLQSEDFAVYYCLQYASSPWTFGQGTKVEIKRTVAAPSVFIFPPSDEQLKSGTASVVCLLNNFYPREAKVQWKVDNALQSGNSQESVTEQDSKDSTYSLSSTLTLSKADYEKHKVYACEVTHQGLSSPVTKSFNRGEC
notes: humanized, hIgG1/kappa, parental antibody 19C16
no binding: all assays above

B2: NEG318 (antibody, human IgG1, kappa, V domains shown)
VH: QVQLVQSGAEVKKPGASVKVSCKASGYTFTSFWITWVRQAPGQGLEWMGDIYPGGATTNYNEKLQGRVTLTVDTSTSTAYMELRSLRSDDTAVYYCARSPPQVGPFDYWGQGTLVTVSS
VL: DIQMTQSPSSLSASVGDRVTITCQASDYIYHWLAWYQQKPGKAPKLLISGASSLETGVPSRFSGSGSGKDYTFTISSLQPEDIATYYCQQYWSIPWTFGQGTKLEIKR
notes: humanized, hIgG1/kappa, parental antibody 14P18
no binding: all assays above
